Results as given in paper doi:10.1101/746180 (bioRxiv, 2020).
Ends that are not written are not given here.

Legend:
[1] = target: MBTD1(140-562)-(GSA)6-EPC1(644-672) fusion protein (UniProt Q05BQ5 140-562; Q9H2F5 644-672); assay: ITC
His-MBTD1 = His-MBTD1 (UniProt Q05BQ5 1-628); assay: ITC
Chain of His-MBTD1 (Q05BQ5 whole entry): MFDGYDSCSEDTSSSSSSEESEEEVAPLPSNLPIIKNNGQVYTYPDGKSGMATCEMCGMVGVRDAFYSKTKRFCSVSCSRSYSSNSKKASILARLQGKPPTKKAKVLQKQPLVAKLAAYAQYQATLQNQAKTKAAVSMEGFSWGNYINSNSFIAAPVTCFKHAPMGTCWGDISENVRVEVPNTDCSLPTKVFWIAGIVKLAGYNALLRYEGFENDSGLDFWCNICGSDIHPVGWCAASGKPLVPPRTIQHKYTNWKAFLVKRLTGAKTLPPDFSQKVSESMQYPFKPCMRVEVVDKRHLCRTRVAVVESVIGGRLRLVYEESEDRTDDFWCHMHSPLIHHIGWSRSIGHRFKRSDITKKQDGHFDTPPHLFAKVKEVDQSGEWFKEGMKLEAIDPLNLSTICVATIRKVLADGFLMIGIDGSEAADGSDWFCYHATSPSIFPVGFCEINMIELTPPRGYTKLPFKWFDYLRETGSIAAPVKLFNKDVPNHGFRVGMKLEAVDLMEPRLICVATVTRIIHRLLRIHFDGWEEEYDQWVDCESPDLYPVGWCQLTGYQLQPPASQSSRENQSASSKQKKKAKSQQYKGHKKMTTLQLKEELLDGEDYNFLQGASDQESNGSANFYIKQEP

Row | binding result [1] | Kd (His-MBTD1) [µM] | stoichiometry N (His-MBTD1) | Binder
1 | binds |  |  | AKRHRK(Me)VLRDN [H4K20me1 peptide]
2 |  | ~0.067 | ~1.3 | QGFVSKTLDSASAQFAASALVTSEQLMGF (domain or fragment, UniProt Q9H2F5 644-672, looked up) [GST-EPC1(644-672)]
